# Measurements taken from patent US20240002498A1 (TENEOBIO, published 2024).
# Numbering of substitutions follows the chain as printed.
# B1: anti-FOLR1 heavy chain antibody (HCAb, UniAb) clone ID 358433 (antibody, V domains shown)
# VH: EVQLVESGGGLVKPGGSLRLSCAASGFIFSSYSMNWVRQAPGKGLEWVSSISSGSSYIYYADSVKGRFTISRDNAKNSLYLQMNSLRAEDTAVYYCARDVTSGIAAAGSAFNIRGQGTLVTVSS
# notes: Heavy chain-only antibody (no light chain), F14 family
# B2: anti-FOLR1 heavy chain antibody (HCAb, UniAb) clone ID 358474 (antibody, V domains shown)
# VH: B1 VH with I28T, V93I
# notes: as for B1
# B3: anti-FOLR1 heavy chain antibody (HCAb, UniAb) clone ID 358457 (antibody, V domains shown)
# VH: B1 VH with K13Q, I28T, A88D
# notes: as for B1
# B4: anti-FOLR1 heavy chain antibody (HCAb, UniAb) clone ID 358454 (antibody, V domains shown)
# VH: B1 VH with K13Q, I28T, Y95F
# notes: as for B1
# B5: anti-FOLR1 heavy chain antibody (HCAb, UniAb) clone ID 358589 (antibody, V domains shown)
# VH: EVQLVESGGGLVQPGGSLRLSCAASGFSFSSYSMKWVRQAPGKGLEWVSYISSSSDTIEYADSVKGRFTISRDNAKNSLYLMNSLRDEDTAVYYCASVGLDFDYRGQGTLVTVSS
# notes: Heavy chain-only antibody (no light chain), F18 family
# B6: anti-FOLR1 heavy chain antibody (HCAb, UniAb) clone ID 352672 (antibody, V domains shown)
# VH: EVQLVESGGGLVQPGGSLRLSCAASGFSFSSYSMKWVRQAPGKGLEWVSYISRSSDTIEYADSVKGRFTISRDNAKNSLYLQMNSLRDEDTAVYYCATVGLDFDYRGQGTLVTVSS
# notes: as for B5
# B7: anti-FOLR1 heavy chain antibody (HCAb, UniAb) clone ID 358614 (antibody, V domains shown)
# VH: B6 VH with T98S
# notes: as for B5
# B8: anti-FOLR1 heavy chain antibody (HCAb, UniAb) clone ID 358598 (antibody, V domains shown)
# VH: B6 VH with K35N, S52T, R53S, T98S
# notes: as for B5
# How the values were obtained:
# [1] = molecular target: human Folate Receptor Alpha (FOLR1) on cells (human) (UniProt P15328); experiment: cell-based or functional assay
# Sequence of human Folate Receptor Alpha (FOLR1) on cells (human) (P15328 25-234): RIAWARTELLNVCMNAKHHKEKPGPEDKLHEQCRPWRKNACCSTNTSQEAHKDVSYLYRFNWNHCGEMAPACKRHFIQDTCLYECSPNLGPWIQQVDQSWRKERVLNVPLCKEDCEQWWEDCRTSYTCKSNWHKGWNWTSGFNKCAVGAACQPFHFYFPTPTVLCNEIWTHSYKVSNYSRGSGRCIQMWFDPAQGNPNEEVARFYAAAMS
# [2] = molecular target: human Folate Receptor Alpha (FOLR1) on cells (human) (UniProt P15328); experiment: saturation binding on IGROV-1 cells, bound against free antibody (Scatchard analysis per paragraph 239)
# [3] = molecular target: T1, human Folate Receptor Alpha (FOLR1) on cells (human, UniProt P15328 25-234); experiment: cell binding, IGROV-1 cells
# T1 construct: whole, on cells; Endogenous on IGROV-1, OVCAR-3, SKOV-3, HT-29 cells; transfected on CHO cells; the cell is named under assay; also called FRα; FRa
# T1 sequence (P15328 25-234): as above
# [4] = molecular target: T1, human Folate Receptor Alpha (FOLR1) on …; experiment: cell binding, OVCAR-3 cells
# [5] = molecular target: recombinant human FOLR1 (human, UniProt P15328 25-234); experiment: BLI, Octet QK-384, recombinant human FOLR1
# Sequence of recombinant human FOLR1 (P15328 25-234 limits assumed): as the sequence (P15328 25-234) above
# Description: As used herein, the “Kd” or “Kd value” refers to a dissociation constant determined by BioLayer Interferometry, using an Octet QK384 instrument (Fortebio Inc., Menlo Park, CA) in kinetics mode. For example, anti-mouse Fc sensors are loaded with mouse-Fc fused antigen and then dipped into antibody-containing wells to measure concentration dependent association rates (kon). Antibody dissociation rates (koff) are measured in the final step, where the sensors are dipped into wells containing buffer only. The Kd is the ratio of koff/kon. (For further details see, Concepcion, J, et al., Comb Chem High Throughput Screen, 12 (8), 791-800, 2009).
# Table 17 summarizes affinity and epitope bin information for anti-FOLR1 heavy chain antibodies (HCAbs). Column 1 indicates the clone ID of the HCAb. Column 2 indicates the affinity of the HCAb to recombinant human FOLR1 as measured by Bio-layer interferometry (BLI) using an Octet QK-384. Column 3 indicates the epitope bin of HCAb as determined by a competition BLI binding experiment using an Octet QK-384.
# [6] = molecular target: T2, cyno FOLR1 on CHO cells (cyno (Cynomolgus macaque), UniProt A0A2K5U044 25-234); experiment: cell binding, CHO cells stably expressing cyno FOLR1
# T2 construct: whole, on cells; also called cyFOLR1
# T2 sequence (A0A2K5U044 entry or part of it): as the sequence (P15328 25-234) above, with I2T, W4R, R37K, A146P, H171Y counted along it
# [7] = molecular target: T1, human Folate Receptor Alpha (FOLR1) on …; experiment: cell binding, CHO cells stably expressing human FOLR1
# [8] = molecular target: T3, mouse FOLR1 on CHO cells (mouse, UniProt P35846 25-232); experiment: cell binding, CHO cells stably expressing mouse FOLR1
# T3 construct: whole, on cells; also called msFOLR1
# T3 sequence (P35846 25-232): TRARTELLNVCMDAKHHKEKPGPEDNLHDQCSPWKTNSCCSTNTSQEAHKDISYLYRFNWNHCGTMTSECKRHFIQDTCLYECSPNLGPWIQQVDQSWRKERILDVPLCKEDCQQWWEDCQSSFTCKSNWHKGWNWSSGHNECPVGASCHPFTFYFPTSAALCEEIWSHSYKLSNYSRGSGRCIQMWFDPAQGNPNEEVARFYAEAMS
# [9] = molecular target: T2, cyno FOLR1 on CHO cells; experiment: flow cytometry, CHO cells stably expressing cyno FOLR1
# [10] = molecular target: T1, human Folate Receptor Alpha (FOLR1) on …; experiment: flow cytometry, CHO cells stably expressing human FOLR1
# [11] = molecular target: T4, FOLR3 (folate receptor gamma) (UniProt P41439 23-245, limits assumed); experiment: BLI (Octet)
# T4 construct: also called FRγ
# T4 sequence (P41439 23-245 limits assumed): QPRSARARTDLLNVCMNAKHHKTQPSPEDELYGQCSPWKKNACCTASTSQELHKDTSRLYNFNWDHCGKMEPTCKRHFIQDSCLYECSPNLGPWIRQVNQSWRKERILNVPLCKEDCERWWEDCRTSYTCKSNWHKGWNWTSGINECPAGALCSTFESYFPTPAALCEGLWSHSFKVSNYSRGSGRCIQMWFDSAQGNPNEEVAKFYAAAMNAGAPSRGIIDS
# [12] = molecular target: T3, mouse FOLR1 on CHO cells; experiment: flow cytometry on CHO cells stably expressing mouse FOLR1, MFI fold over background
# Description: IGROV-1 cells, OVCAR-3 cells, CHO cells stably expressing human FOLR1, CHO cells stably expressing cyno FOLR1, and CHO cells stably expressing mouse FOLR1 were incubated with increasing amounts of the indicated antibodies, and binding characteristics were analyzed. Data are presented in FIG. 1, panels A-E, as MFI fold over background.
# [13] = molecular target: T1, human Folate Receptor Alpha (FOLR1) on …; experiment: flow cytometry, IGROV-1 cells
# [14] = molecular target: T5, CHO_huFOLR2 (human, UniProt P14207); experiment: flow cytometry on CHO cells stably expressing human FOLR2, MFI fold over background
# T5 construct: stably expressed on CHO cells; also called human FOLR2 on CHO cells; folate receptor beta
# T5 sequence (P14207 17-230 limits assumed): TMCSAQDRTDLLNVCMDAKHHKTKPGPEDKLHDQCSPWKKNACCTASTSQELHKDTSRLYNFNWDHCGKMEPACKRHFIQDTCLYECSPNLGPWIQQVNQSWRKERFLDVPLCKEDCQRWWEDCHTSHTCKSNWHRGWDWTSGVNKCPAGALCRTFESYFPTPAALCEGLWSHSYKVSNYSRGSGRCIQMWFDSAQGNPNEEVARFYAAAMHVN
# Description: Anti-FOLR1 HCAb binding to CHO cells stably expressing human FOLR2 (also known as folate receptor beta, FRβ), and CHO cells stably expressing human IZUMO1R (also known as folate receptor delta, FOLR4, FRδ, JUNO) was analyzed for a number of different clones. Data are presented in FIG. 2, panels A-B, as MFI fold over background. Insets show binding of positive control anti-FOLR2 and anti-IZUMO1R antibodies, respectively, in dark grey, compared to the respective isotype control in light grey.
Molecule,EC50 of ex vivo tumor cell lysis (dissociated ovarian tumor sample) [1] [nM],"maximum tumor cell lysis (IGROV-1 cells with human pan T-cells, 48 hours) [1] [%]",EC50 (read off the curve) [2] [nM],EC50 [3] [nM],EC50 [4] [nM],Kd [5] [nM],EC50 [6] [nM],EC50 [7] [nM],EC50 [8] [nM],fold over background MFI [9] [fold over background],fold over background MFI [10] [fold over background],binding result [11],binding result [12],fold over background MFI [13] [fold over background],binding result [14]
"TNB-928B, fully human bispecific antibody that binds to FOLR1 (FRα) and CD3",0.0452,75,6,,,,,,,,,,,,
B1,,,,4.1,1.3,6.34,3.1,5.9,3.6,2530,1980,,,,
B2,,,,4,1.2,7.62,4.3,4,2.6,2350,2240,no binding,,,
B3,,,,3.6,1.1,6.82,3,4.6,2.5,2520,2080,,,,
B4,,,,3.3,1.5,6.78,3.4,4.2,3.2,1520,1230,no binding,,,
B5,,,,3.7,0.9,22.3,1.9,3.3,,996,1580,,no binding (tested: 100 nM (log[nM] 2)),,
B6,,,,8.8,6.3,36,2.9,5.9,,623,1070,,,2300,no binding (tested: 100 nM)
B7,,,,2.1,0.7,26.8,2.7,1.9,,735,886,no binding,no binding (tested: 100 nM (log[nM] 2)),,
B8,,,,2.6,0.6,22.7,2.4,1.9,,1010,1890,no binding,no binding (tested: 100 nM (log[nM] 2)),,
